Assay in all cases: enzyme inhibition, pNA substrate
The target in experiment [1] is T1, Trypsin, Iodination grade, from human pancreas (human, UniProt P07477 24-247).
T1 construct: purified natural enzyme, bought

Experiment [2] concerns the target T2, Chymotrypsin, from human pancreas (human, UniProt P17538 19-263).
T2 construct: purified natural enzyme, bought

In experiment [3] the target is T3, Chymase, from human skin (human, UniProt P23946 22-247).
T3 construct: purified natural enzyme, bought
T3 sequence (looked up): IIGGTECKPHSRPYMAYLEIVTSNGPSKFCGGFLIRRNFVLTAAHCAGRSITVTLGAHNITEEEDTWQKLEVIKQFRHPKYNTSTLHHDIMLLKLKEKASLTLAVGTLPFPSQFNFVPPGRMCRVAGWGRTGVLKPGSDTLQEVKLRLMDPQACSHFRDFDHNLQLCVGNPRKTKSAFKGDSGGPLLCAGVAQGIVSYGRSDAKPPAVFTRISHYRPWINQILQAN

The target of experiment [4] is Thrombin, from Human Plasma, high activity (human, UniProt P00734 328-622).
Experiment [5] deals with T4, Coagulation Factor Xa, from uman plasma (human, UniProt P00742 41-179; P00742 235-488, limits assumed).
T4 construct: purified natural enzyme, bought; also called FXa

For experiment [6], the target named is T5, Urokinase from human urine (human, UniProt P00749 21-431, limits assumed).
T5 construct: purified natural enzyme, bought

Experiment [7] addresses T6, Tryptase, from human lung (human, UniProt Q15661 31-275, limits assumed).
T6 construct: purified natural enzyme, bought

Bridges are numbered along the chain shown (N, C = ends). Primed or numbered codes have the meaning given here. [ ]: non-standard residue; d: D form. Pro(4NHCOPhe)″ = 4-benzamido-L-proline, (2S)-4-benzoylamino-pyrrolidine-2-carboxylic acid; Nle = CCCC[C@H](N)C(=O)O

T2 sequence (P17538 19-263): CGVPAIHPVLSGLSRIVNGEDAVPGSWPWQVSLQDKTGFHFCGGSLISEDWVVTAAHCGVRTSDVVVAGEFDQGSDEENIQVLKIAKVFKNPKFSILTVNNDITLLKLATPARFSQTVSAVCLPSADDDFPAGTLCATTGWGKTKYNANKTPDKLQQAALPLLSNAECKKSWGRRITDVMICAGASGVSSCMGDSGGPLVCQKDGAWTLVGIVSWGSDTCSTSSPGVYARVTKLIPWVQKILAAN
T6 sequence (Q15661 31-275 limits assumed): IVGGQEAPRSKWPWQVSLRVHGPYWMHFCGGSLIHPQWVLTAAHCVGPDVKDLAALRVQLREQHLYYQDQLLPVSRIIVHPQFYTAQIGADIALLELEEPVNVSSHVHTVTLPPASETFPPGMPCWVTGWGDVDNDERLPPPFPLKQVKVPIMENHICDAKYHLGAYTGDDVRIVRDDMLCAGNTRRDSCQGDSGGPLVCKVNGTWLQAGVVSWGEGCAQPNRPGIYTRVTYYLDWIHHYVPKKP
T4 sequence (P00742 41-179 limits assumed, chain 1 of 2): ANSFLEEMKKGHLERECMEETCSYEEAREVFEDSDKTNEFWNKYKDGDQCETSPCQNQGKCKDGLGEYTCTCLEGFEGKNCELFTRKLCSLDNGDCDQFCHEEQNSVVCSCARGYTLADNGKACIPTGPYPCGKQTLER
T4 sequence (P00742 235-488 limits assumed, chain 2 of 2): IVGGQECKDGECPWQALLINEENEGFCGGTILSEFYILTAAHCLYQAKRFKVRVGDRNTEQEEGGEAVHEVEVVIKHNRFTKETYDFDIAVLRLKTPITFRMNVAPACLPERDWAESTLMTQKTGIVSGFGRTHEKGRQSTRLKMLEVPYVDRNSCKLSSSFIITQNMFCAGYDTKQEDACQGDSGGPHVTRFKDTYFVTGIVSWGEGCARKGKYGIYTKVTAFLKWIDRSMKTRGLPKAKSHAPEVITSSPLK

B1: Example 169 (peptide)
peptide: XCTASXPPQCY
HELM: PEPTIDE1{[Nle].C.T.A.S.[CCCCCCCC[C@H](N[*:1])C(=O)[*:2]].P.P.Q.C.Y.[dP].Q}$PEPTIDE1,PEPTIDE1,2:R3-10:R3|PEPTIDE1,PEPTIDE1,1:R1-13:R2$$$V2.0
SMILES: CCCCCCCC[C@@H]1NC(=O)[C@H](CO)NC(=O)[C@H](C)NC(=O)[C@H]([C@@H](C)O)NC(=O)[C@@H]2CSSC[C@H](NC(=O)[C@H](CCC(N)=O)NC(=O)[C@@H]3CCCN3C(=O)[C@@H]3CCCN3C1=O)C(=O)N[C@@H](Cc1ccc(O)cc1)C(=O)N1CCC[C@@H]1C(=O)N[C@@H](CCC(N)=O)C(=O)N[C@@H](CCCC)C(=O)N2
notes: also called Ex. 169
On to B1, for which the “% inhibition at 100 µM” value came to 10.8% in experiment [1]; 79.6% in experiment [2]; 0% in experiment [3]; 20.6% in experiment [4]; 13.3% in experiment [5]; 10.4% in experiment [6].

B2: Example 98 (peptide)
peptide: XCTASIPPQCX
HELM: PEPTIDE1{[Nle].C.T.A.S.I.P.P.Q.C.[Phg].[dP].P}$PEPTIDE1,PEPTIDE1,2:R3-10:R3|PEPTIDE1,PEPTIDE1,1:R1-13:R2$$$V2.0
SMILES: CCCC[C@@H]1NC(=O)[C@@H]2CCCN2C(=O)[C@H]2CCCN2C(=O)[C@H](c2ccccc2)NC(=O)[C@@H]2CSSC[C@H](NC1=O)C(=O)N[C@@H]([C@@H](C)O)C(=O)N[C@@H](C)C(=O)N[C@@H](CO)C(=O)N[C@@H]([C@@H](C)CC)C(=O)N1CCC[C@H]1C(=O)N1CCC[C@H]1C(=O)N[C@@H](CCC(N)=O)C(=O)N2
notes: also called Ex. 98
Turning to B2, the “% inhibition at 100 µM” value in experiment [1], in experiment [3], in experiment [5], in experiment [6] and in experiment [7] was 0% throughout.

B3: Example 122 (peptide)
peptide: XCTASIPPQCY
HELM: PEPTIDE1{[Nle].C.T.A.S.I.P.P.Q.C.Y.[dP].F}$PEPTIDE1,PEPTIDE1,2:R3-10:R3|PEPTIDE1,PEPTIDE1,1:R1-13:R2$$$V2.0
SMILES: CCCC[C@@H]1NC(=O)[C@H](Cc2ccccc2)NC(=O)[C@H]2CCCN2C(=O)[C@H](Cc2ccc(O)cc2)NC(=O)[C@@H]2CSSC[C@H](NC1=O)C(=O)N[C@@H]([C@@H](C)O)C(=O)N[C@@H](C)C(=O)N[C@@H](CO)C(=O)N[C@@H]([C@@H](C)CC)C(=O)N1CCC[C@H]1C(=O)N1CCC[C@H]1C(=O)N[C@@H](CCC(N)=O)C(=O)N2
In the case of B3, the “% inhibition at 100 µM” value in experiment [1] was 19%; in experiment [4], 0%; in experiment [5] it was 19.6%; in experiment [6], 11.1%.

B4: Example 140 (peptide)
peptide: XCTASXPPQCY
HELM: PEPTIDE1{[Nle].C.T.A.S.[O=C([C@@H](N[*:1])C1CCCCC1)[*:2]].P.P.Q.C.Y.[dP].P}$PEPTIDE1,PEPTIDE1,2:R3-10:R3|PEPTIDE1,PEPTIDE1,1:R1-13:R2$$$V2.0
SMILES: CCCC[C@@H]1NC(=O)[C@@H]2CCCN2C(=O)[C@H]2CCCN2C(=O)[C@H](Cc2ccc(O)cc2)NC(=O)[C@@H]2CSSC[C@H](NC1=O)C(=O)N[C@@H]([C@@H](C)O)C(=O)N[C@@H](C)C(=O)N[C@@H](CO)C(=O)N[C@@H](C1CCCCC1)C(=O)N1CCC[C@H]1C(=O)N1CCC[C@H]1C(=O)N[C@@H](CCC(N)=O)C(=O)N2
notes: also called Ex. 140
Consider B4, for which the “% inhibition at 100 µM” value was 10.8% in experiment [1]; 79.6% in experiment [2]; 0% in experiment [3]; 20.6% in experiment [4]; 13.3% in experiment [5]; 10.4% in experiment [6].

For the molecule cyclo([Nle]CTASIP[Pro(4NHCOPhe)″]QCY[dP]P) (disulfide 2-10) [Example 138], the “% inhibition at 100 µM” value in experiment [1] was 12.2%; in experiment [2] it was 77.1%; in experiment [4] it was 17.1%; in experiment [5], 12.6%; in experiment [6], 14.4%; in experiment [7] it was 0%.

B5: Example 136 (peptide)
peptide: XCTASIPPQCX
HELM: PEPTIDE1{[Nle].C.T.A.S.I.P.P.Q.C.[Phg].[dP].P}$PEPTIDE1,PEPTIDE1,2:R3-10:R3|PEPTIDE1,PEPTIDE1,1:R1-13:R2$$$V2.0
SMILES: CCCC[C@@H]1NC(=O)[C@@H]2CCCN2C(=O)[C@H]2CCCN2C(=O)[C@H](c2ccccc2)NC(=O)[C@@H]2CSSC[C@H](NC1=O)C(=O)N[C@@H]([C@@H](C)O)C(=O)N[C@@H](C)C(=O)N[C@@H](CO)C(=O)N[C@@H]([C@@H](C)CC)C(=O)N1CCC[C@H]1C(=O)N1CCC[C@H]1C(=O)N[C@@H](CCC(N)=O)C(=O)N2
notes: also called Ex. 136
As to B5, the “% inhibition at 100 µM” value amounted to 0% in experiment [1]; 67.9% in experiment [2]; 0% in experiment [3]; 0% in experiment [5]; 0% in experiment [6]; 0% in experiment [7].

B6: Example 167 (peptide)
peptide: XCTASIPPQCY
HELM: PEPTIDE1{[Nle].C.T.A.S.I.P.P.Q.C.Y.[dP].F}$PEPTIDE1,PEPTIDE1,2:R3-10:R3|PEPTIDE1,PEPTIDE1,1:R1-13:R2$$$V2.0
SMILES: CCCC[C@@H]1NC(=O)[C@H](Cc2ccccc2)NC(=O)[C@H]2CCCN2C(=O)[C@H](Cc2ccc(O)cc2)NC(=O)[C@@H]2CSSC[C@H](NC1=O)C(=O)N[C@@H]([C@@H](C)O)C(=O)N[C@@H](C)C(=O)N[C@@H](CO)C(=O)N[C@@H]([C@@H](C)CC)C(=O)N1CCC[C@H]1C(=O)N1CCC[C@H]1C(=O)N[C@@H](CCC(N)=O)C(=O)N2
notes: also called Ex. 167
As for B6, the “% inhibition at 100 µM” value in experiment [1] is 19%; in experiment [2], 60.2%; in experiment [4], 0%; in experiment [5] it was 19.6%; in experiment [6] it was 11.1%.

B7: Example 99 (peptide)
peptide: XCTASIPPQCY
HELM: PEPTIDE1{[CCCCCC[C@H](N[*:1])C(=O)[*:2]].C.T.A.S.I.P.P.Q.C.Y.[dP].P}$PEPTIDE1,PEPTIDE1,2:R3-10:R3|PEPTIDE1,PEPTIDE1,1:R1-13:R2$$$V2.0
SMILES: CCCCCC[C@@H]1NC(=O)[C@@H]2CCCN2C(=O)[C@H]2CCCN2C(=O)[C@H](Cc2ccc(O)cc2)NC(=O)[C@@H]2CSSC[C@H](NC1=O)C(=O)N[C@@H]([C@@H](C)O)C(=O)N[C@@H](C)C(=O)N[C@@H](CO)C(=O)N[C@@H]([C@@H](C)CC)C(=O)N1CCC[C@H]1C(=O)N1CCC[C@H]1C(=O)N[C@@H](CCC(N)=O)C(=O)N2
notes: also called Ex. 99
As to B7, the “% inhibition at 100 µM” value was found to be 30.5% in experiment [1]; 0% in experiment [3]; 0% in experiment [4]; 0% in experiment [5]; 17.4% in experiment [6]; 0% in experiment [7].

B8: Example 146 (peptide)
peptide: XCTASIPPQCF
HELM: PEPTIDE1{[O=C([C@H](CCc1ccccc1)N[*:1])[*:2]].C.T.A.S.I.P.P.Q.C.F.[dP].P}$PEPTIDE1,PEPTIDE1,2:R3-10:R3|PEPTIDE1,PEPTIDE1,1:R1-13:R2$$$V2.0
SMILES: CC[C@H](C)[C@@H]1NC(=O)[C@H](CO)NC(=O)[C@H](C)NC(=O)[C@H]([C@@H](C)O)NC(=O)[C@@H]2CSSC[C@H](NC(=O)[C@H](CCC(N)=O)NC(=O)[C@@H]3CCCN3C(=O)[C@@H]3CCCN3C1=O)C(=O)N[C@@H](Cc1ccccc1)C(=O)N1CCC[C@@H]1C(=O)N1CCC[C@H]1C(=O)N[C@@H](CCc1ccccc1)C(=O)N2
Take B8: the “% inhibition at 100 µM” value worked out at 87% in experiment [2]; 0% in experiment [3]; 11% in experiment [4]; 0% in experiment [6]; 22% in experiment [7].

B9: Example 95 (peptide)
peptide: XCTASIPPQCX
HELM: PEPTIDE1{[Nle].C.T.A.S.I.P.P.Q.C.[O=C([C@H](Cc1ccc2ccccc2c1)N[*:1])[*:2]].[dP].P}$PEPTIDE1,PEPTIDE1,2:R3-10:R3|PEPTIDE1,PEPTIDE1,1:R1-13:R2$$$V2.0
SMILES: CCCC[C@@H]1NC(=O)[C@@H]2CCCN2C(=O)[C@H]2CCCN2C(=O)[C@H](Cc2ccc3ccccc3c2)NC(=O)[C@@H]2CSSC[C@H](NC1=O)C(=O)N[C@@H]([C@@H](C)O)C(=O)N[C@@H](C)C(=O)N[C@@H](CO)C(=O)N[C@@H]([C@@H](C)CC)C(=O)N1CCC[C@H]1C(=O)N1CCC[C@H]1C(=O)N[C@@H](CCC(N)=O)C(=O)N2
notes: also called Ex. 95
Regarding B9, the “% inhibition at 100 µM” value in experiment [3] was found to be 0%; in experiment [4], 0%; in experiment [5], 11.3%; in experiment [6] it was 10.3%; in experiment [7] it was 0%.

By % inhibition is commonly meant the percentage by which the read-out fell short of the control. Higher therefore signals a response far below the control.

Source of the values: patent publication US20140213531A1 (POLYPHOR, published 2014).
